# T1: TNFR1 (Homo sapiens, UniProt P19438)
# T1 chain: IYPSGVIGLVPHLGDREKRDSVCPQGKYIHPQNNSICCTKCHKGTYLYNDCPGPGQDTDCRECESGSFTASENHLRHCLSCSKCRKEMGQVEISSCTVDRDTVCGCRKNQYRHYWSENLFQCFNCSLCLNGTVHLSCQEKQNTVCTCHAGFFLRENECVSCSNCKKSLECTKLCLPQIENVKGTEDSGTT
# Molecular target: T1, TNFR1
# Assay: yeast display SC50
row,Binder,apparent Kd (screen) [nM]
1,A19D (designed binder) MTLQELLREEALRRAEAEDFRYALELLAEKFPEQKEYLLDLAEEIESQIRSLSGVDVEDVRKFLDKEWAWVKELLAEHPAELAEVEAARAARLAELRAEVEAKVAA,1.16
2,T2K (designed binder) MKLQELLREEALRRAEAEAFRYALELLAEKFPEQKEYLLDLAEEIESQIRSLSGVDVEDVRKFLDKEWAWVKELLAEHPAELAEVEAARAARLAELRAEVEAKVAA,0.718
3,Y37I (designed binder) MTLQELLREEALRRAEAEAFRYALELLAEKFPEQKEILLDLAEEIESQIRSLSGVDVEDVRKFLDKEWAWVKELLAEHPAELAEVEAARAARLAELRAEVEAKVAA,22.2
4,L6V (designed binder) MTLQEVLREEALRRAEAEAFRYALELLAEKFPEQKEYLLDLAEEIESQIRSLSGVDVEDVRKFLDKEWAWVKELLAEHPAELAEVEAARAARLAELRAEVEAKVAA,2.48
5,E18D (designed binder) MTLQELLREEALRRAEADAFRYALELLAEKFPEQKEYLLDLAEEIESQIRSLSGVDVEDVRKFLDKEWAWVKELLAEHPAELAEVEAARAARLAELRAEVEAKVAA,0.718
6,D56A (designed binder) MTLQELLREEALRRAEAEAFRYALELLAEKFPEQKEYLLDLAEEIESQIRSLSGVAVEDVRKFLDKEWAWVKELLAEHPAELAEVEAARAARLAELRAEVEAKVAA,2.05
7,E43D (designed binder) MTLQELLREEALRRAEAEAFRYALELLAEKFPEQKEYLLDLADEIESQIRSLSGVDVEDVRKFLDKEWAWVKELLAEHPAELAEVEAARAARLAELRAEVEAKVAA,0.79
8,V60T (designed binder) MTLQELLREEALRRAEAEAFRYALELLAEKFPEQKEYLLDLAEEIESQIRSLSGVDVEDTRKFLDKEWAWVKELLAEHPAELAEVEAARAARLAELRAEVEAKVAA,0.539
9,A19I (designed binder) MTLQELLREEALRRAEAEIFRYALELLAEKFPEQKEYLLDLAEEIESQIRSLSGVDVEDVRKFLDKEWAWVKELLAEHPAELAEVEAARAARLAELRAEVEAKVAA,0.956
10,Q4G (designed binder) MTLGELLREEALRRAEAEAFRYALELLAEKFPEQKEYLLDLAEEIESQIRSLSGVDVEDVRKFLDKEWAWVKELLAEHPAELAEVEAARAARLAELRAEVEAKVAA,0.49
11,R50G (designed binder) MTLQELLREEALRRAEAEAFRYALELLAEKFPEQKEYLLDLAEEIESQIGSLSGVDVEDVRKFLDKEWAWVKELLAEHPAELAEVEAARAARLAELRAEVEAKVAA,1.05
12,L24G (designed binder) MTLQELLREEALRRAEAEAFRYAGELLAEKFPEQKEYLLDLAEEIESQIRSLSGVDVEDVRKFLDKEWAWVKELLAEHPAELAEVEAARAARLAELRAEVEAKVAA,1.4
13,L39H (designed binder) MTLQELLREEALRRAEAEAFRYALELLAEKFPEQKEYLHDLAEEIESQIRSLSGVDVEDVRKFLDKEWAWVKELLAEHPAELAEVEAARAARLAELRAEVEAKVAA,2.48
14,E46V (designed binder) MTLQELLREEALRRAEAEAFRYALELLAEKFPEQKEYLLDLAEEIVSQIRSLSGVDVEDVRKFLDKEWAWVKELLAEHPAELAEVEAARAARLAELRAEVEAKVAA,0.49
15,E10L (designed binder) MTLQELLRELALRRAEAEAFRYALELLAEKFPEQKEYLLDLAEEIESQIRSLSGVDVEDVRKFLDKEWAWVKELLAEHPAELAEVEAARAARLAELRAEVEAKVAA,0.539
16,E36I (designed binder) MTLQELLREEALRRAEAEAFRYALELLAEKFPEQKIYLLDLAEEIESQIRSLSGVDVEDVRKFLDKEWAWVKELLAEHPAELAEVEAARAARLAELRAEVEAKVAA,2.48
17,S53M (designed binder) MTLQELLREEALRRAEAEAFRYALELLAEKFPEQKEYLLDLAEEIESQIRSLMGVDVEDVRKFLDKEWAWVKELLAEHPAELAEVEAARAARLAELRAEVEAKVAA,1.27

# Further lines, results first:
row,apparent Kd (screen) [nM],Binder
1,0.49,E99I (designed binder) MTLQELLREEALRRAEAEAFRYALELLAEKFPEQKEYLLDLAEEIESQIRSLSGVDVEDVRKFLDKEWAWVKELLAEHPAELAEVEAARAARLAELRAIVEAKVAA
2,0.49,A98W (designed binder) MTLQELLREEALRRAEAEAFRYALELLAEKFPEQKEYLLDLAEEIESQIRSLSGVDVEDVRKFLDKEWAWVKELLAEHPAELAEVEAARAARLAELRWEVEAKVAA
3,0.79,A87F (designed binder) MTLQELLREEALRRAEAEAFRYALELLAEKFPEQKEYLLDLAEEIESQIRSLSGVDVEDVRKFLDKEWAWVKELLAEHPAELAEVEFARAARLAELRAEVEAKVAA
4,0.446,A87E (designed binder) MTLQELLREEALRRAEAEAFRYALELLAEKFPEQKEYLLDLAEEIESQIRSLSGVDVEDVRKFLDKEWAWVKELLAEHPAELAEVEEARAARLAELRAEVEAKVAA
5,29.5,V71D (designed binder) MTLQELLREEALRRAEAEAFRYALELLAEKFPEQKEYLLDLAEEIESQIRSLSGVDVEDVRKFLDKEWAWDKELLAEHPAELAEVEAARAARLAELRAEVEAKVAA
6,1.05,K66H (designed binder) MTLQELLREEALRRAEAEAFRYALELLAEKFPEQKEYLLDLAEEIESQIRSLSGVDVEDVRKFLDHEWAWVKELLAEHPAELAEVEAARAARLAELRAEVEAKVAA
7,0.718,A106F (designed binder) MTLQELLREEALRRAEAEAFRYALELLAEKFPEQKEYLLDLAEEIESQIRSLSGVDVEDVRKFLDKEWAWVKELLAEHPAELAEVEAARAARLAELRAEVEAKVAF
8,1.27,A83P (designed binder) MTLQELLREEALRRAEAEAFRYALELLAEKFPEQKEYLLDLAEEIESQIRSLSGVDVEDVRKFLDKEWAWVKELLAEHPAELPEVEAARAARLAELRAEVEAKVAA
9,0.79,A102L (designed binder) MTLQELLREEALRRAEAEAFRYALELLAEKFPEQKEYLLDLAEEIESQIRSLSGVDVEDVRKFLDKEWAWVKELLAEHPAELAEVEAARAARLAELRAEVELKVAA

# Source: paper PMC12416549 (2024)
